In patent US20110165265A1, “TRAIL VARIANTS FOR TREATING CANCER” (FUNDACIÓ GENÒMICA (CRG), priority 2007, published 2011):
Positions count from the first letter of the chain named. Names may count otherwise.

Assays:
A2780 cells [1] = assay: MTT cytotoxicity in A2780 (Example 6); type: cell-based; conditions: A2780 (FIG. 8E)
HeLa cells = assay: Cell survival / sensitivity of HeLa; type: cell-based
Description: (B) Effect of increasing of Bortezomib on cell viability. Hela cells appear to tolerate higher concentration of Bortezomib compared to Caski and SIHA cells (C) Combination therapy with 10 nM Bortezomib incubated for 24 h lead to further decreases in cell viability in cells treated with both TRAIL and two of the DR5 mutants (D) Radiation therapy in combination with TRAIL or the DR5 mutants further decrease cell viability in HELA cells. The DR5 mutant show decrease cell viability at lower concentration of ligand compared to TRAIL.

DR4 = target: T1, DR4 (Homo sapiens, UniProt O00220); conditions: earlier work referred to; cited from earlier work
T1 construct: the more commonly used dimeric TRAIL-receptor-IgG Fc chimeric constructs
T1 sequence (O00220 24-239 limits assumed): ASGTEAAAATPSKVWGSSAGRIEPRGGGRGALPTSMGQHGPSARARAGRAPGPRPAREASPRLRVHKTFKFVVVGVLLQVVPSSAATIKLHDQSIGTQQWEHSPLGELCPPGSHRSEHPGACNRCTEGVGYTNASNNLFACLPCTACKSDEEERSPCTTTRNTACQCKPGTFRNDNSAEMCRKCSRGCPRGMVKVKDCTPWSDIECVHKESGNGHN

A2780 cells [2] = assay: Annexin V apoptosis assay in A2780; type: cell-based, human; conditions: A2780 ovarian cancer cells
SW948 cells = assay: Cell survival / sensitivity of SW948; type: cell-based
DcR1 = target: T2, DcR1 (Homo sapiens, UniProt O14798); assay: SPR receptor binding assay, immobilized DcR1-Ig; conditions: 0.1-250 nM ligand
T2 construct: soluble, recombinant DcR1-Ig (sDcR1) and DcR2-Ig (sDcR2); purchased R&D Systems
T2 sequence (O14798 26-236 limits assumed): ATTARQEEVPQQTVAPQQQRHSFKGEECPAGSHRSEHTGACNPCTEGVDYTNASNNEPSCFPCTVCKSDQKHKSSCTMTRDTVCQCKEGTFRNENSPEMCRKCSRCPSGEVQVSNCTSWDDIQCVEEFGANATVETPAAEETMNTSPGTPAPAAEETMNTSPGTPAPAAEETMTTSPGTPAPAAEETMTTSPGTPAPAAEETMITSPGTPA
Description: (§1) The response data (in response units) as a function of TRAIL concentration were fitted using a four parameter equation to give an apparent pre-steady state affinity constant.
(§2) Binding experiments were performed at 37° C. using a surface plasmon resonance-based biosensor (Biacore 3000, Biacore AB, Uppsala, Sweden) as previously described^10. In short, DcR1-Ig and DcR2-Ig receptor chimeras (R&D Systems) were captured at a 35 μl/min flow rate using a protein A (Sigma) modified CM5 sensor chip (Biacore). Receptor chimeras were captured at a level of ˜500-800 response units (RU). […] Binding of ligands to the receptors was monitored in real-time. Between injections the protein A sensor surface was regenerated using a 30s pulse of 0.1 M glycine 0.5 M NaCl pH 3. Due to the very slow dissociation of the TRAIL-receptor complex, only pre-steady state binding data could be obtained. In order to obtain data that represent proper high-affinity complex formation, the response at each concentration was recorded 30 sec after the end of the injection. The response data (in response units) as a function of TRAIL concentration were fitted using a four parameter equation to give an apparent pre-steady state affinity constant.
(§3) Affinity of the ligands was assessed by measuring receptor binding in a concentration range of 0.1-250 nM.

DcR2 = target: T3, DcR2 (Homo sapiens, UniProt Q9UBN6); assay: SPR receptor binding assay, immobilized DcR2-Ig; conditions: 0.1-250 nM ligand
T3 construct: soluble, recombinant DcR1-Ig (sDcR1) and DcR2-Ig (sDcR2); purchased R&D Systems
T3 sequence (Q9UBN6 56-211 limits assumed): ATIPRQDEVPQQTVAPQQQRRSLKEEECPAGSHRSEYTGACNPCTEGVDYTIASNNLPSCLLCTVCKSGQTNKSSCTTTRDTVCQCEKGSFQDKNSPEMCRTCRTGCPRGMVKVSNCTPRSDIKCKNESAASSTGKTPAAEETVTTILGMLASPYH
Description: as §1, §2, §3

Colo205 cells [3] = assay: Cell survival / sensitivity of Colo205; type: cell-based; conditions: Colo205
Description: (B) Effect of increasing concentrations of Aspirin on cell viability. (C) Effect of increasing concentrations of 5-Flurouracil on cell viability. (D) Combination therapy with 5 mM Aspirin pre-incubated for 24 h lead to further decreases in cell viability in cells treated with both TRAIL and two of the DR5 mutants. (E) 30 minute incubation of DR5 mutants, were sufficient decrease cell viability which was further augmented when cells were pre-incubated for 24 h with Aspirin. The shorter incubation period lead to a decrease potency of TRAIL alone or in combination with Aspirin. […] (G) 30 min incubation of the DR5 mutant was sufficient to decrease cell viability which was not enhanced by 5-Flurouracil, and once again the decease potency of TRAIL is seen. Proteins are indicated as follows: TRAIL stands for rhTRAIL WT; D269H stands for rhTRAIL carrying mutation D269H; E195R stands for rhTRAIL carrying mutations D269H and E195R; and M1 stands for rhTRAIL carrying mutations D269H, E194I and I196S.
TRAIL-induced cell death as a function of concentration was measured with the MTS assay.

Human dermal fibroblasts = assay: MTT viability of human dermal fibroblasts; type: cell-based; conditions: 50-500 ng/ml, 24 h
Description: (§4) Human dermal fibroblasts were grown in low glucose DMEM (Sigma) supplemented with 10% fetal calf serum, 50 U/ml penicillin and […] streptomycin; human umbilical vein endothelial cells (HUVEC, PromoCell) were cultured in Endothelial Cell Growth Medium with SupplementMix (PromoCell). Fibroblasts and HUVEC cells were seeded at 1.3×10^5 cells/ml 24 h before treatment with increasing concentrations of TRAIL and DR5-selective variants, D269H and D269HE195R (50-500 ng/ml) for 24 h and cell viability was measured using MTT assay, wherein 200 μg/ml MTT (3-(4,5-dimethylthiazo1-2-yl)-2,5-diphenyl-tetrazolium bromide) was added to control and treated cells and incubated for 3 h at 37° C. The reaction was stopped and the purple formazan precipitate formed was dissolved using dimethyl sulfoxide (DMSO) and the colour intensity was measured at 550 nm on a Wallac multilabel counter. The control value corresponding to untreated cells was taken as 100% and the viability of treated samples was expressed as a percentage of the control. (FIG. 15).

LoVo cells = assay: Cell survival / sensitivity of LoVo; type: cell-based
Excerpt: C) Effect of increasing concentration of 5-Flurouracil on Lovo cells.

[4] = tested on: human umbilical vein endothelial cells (HUVEC); assay: Viability of HUVEC; type: cell-based; conditions: 50-500 ng/ml, 24 h, MTT
Description: as §4

Colo205 cells [5] = assay: Colo205 apoptosis after pre-incubation of ligand with soluble receptor-Ig; type: cell-based, human; conditions: 10 ng/ml ligand
Description: (A) Effect of soluble recombinant DcR1-Ig (sDcR1) on apoptosis induction by TRAIL and DR5-selective variants. […] All graphs are representatives of two independent repeats. (D) Neutralizing antibodies against DcR1 and DcR2 can augment wtTRAIL- but not DR5-variant induced cell death. […] Induction of apoptosis was measured 3 h post-treatment using Annexin V assay. […] The graphs show the average±SEM of three independent experiments.
Induction of cell death was assessed by Annexin V assay 3 h after treatment (FIG. 14), as described above. […] (FIG. 14C). This confirms that the observed differences in blocking efficacy are due to reduced ability of the decoy receptors to bind and inhibit D269H and D269HE195R.

DR5 = target: T4, DR5 (Homo sapiens, UniProt O14763); conditions: earlier work referred to; cited from earlier work
T4 construct: Effect of soluble recombinant DR5-Ig (sDR5) on apoptosis induction

Caski cells = assay: Cell survival / sensitivity of Caski; type: cell-based
ML-1 cells = assay: Cytotoxicity in ML-1 cells; type: cell-based
Description: (§5) Colo205 and ML-1 cells were then treated with increasing concentrations of TRAIL or the DR5-specific variants D269H, D269HE195R, and D269H/T214R, and their cytotoxic potential was measured with a 3-(4,5-dimethylthiazol-2-yl)-2,5-diphenyl tetrazolium bromide (MTT) assay.

Colo205 cells [6] = assay: MTT cytotoxicity and DR4/DR5 neutralizing antibodies in Colo205; type: cell-based, human; conditions: Colo205, at a lower concentration (FIG. 8C)
Description: To assess the biological activity related to DR5 binding, various cancer cells were used. Colo205 colon carcinoma cells and ML-1 […] myeloid leukemia cells express all four TRAIL receptors on the cell surface, as shown by using FACS analysis (FIG. 7), and are sensitive to TRAIL-induced apoptosis. To test the involvement of DR4 versus DR5 in TRAIL-induced cell death, Colo205 cells were treated with neutralizing anti-DR4 or anti-DR5 antibody for 1 h before the addition of TRAIL. […] In contrast, the DR4 pathway is the major mediator of TRAIL-induced apoptosis in ML-1 cells (FIG. 8A.) To examine whether the DR5-specific TRAIL variants induce cell death in Colo205 cells by way of the DR5 receptor, 1 μg/ml neutralizing anti-DR4 or -DR5 antibodies were administered 1 h before ligand treatment.
as §5

B1: D269H: rhTRAIL carrying mutation D269H; DR5-selective TRAIL variant (protein)
chain: MVRERGPQRVAAHITGTRGRSNTLSSPNSKNEKALGRKINSWESSRSGHSFLSNLHLRNGELVIHEKGFYYIYSQTYFRFQEEIKENTKNDKQMVQYIYKYTSYPDPILLMKSARNSCWSKDAEYGLYSIYQGGIFELKENDRIFVSVTNEHLIDMHHEASFFGAFLVG
For B1, the “cytotoxic activity compared with wild-type TRAIL” value (A2780 cells [1]) is given as “significantly increased”, the “cell viability, single agent” value (HeLa cells) is given as “comparable” and the “binding to DR4” value (DR4) is given as “highly reduced”. The “increase in apoptosis / efficiency compared to wtTRAIL” value (A2780 cells [2]) was 3-4 fold, the “cell viability, single agent” value (SW948 cells) was “decreased cell viability” and the “binding towards DcR1, reduction compared to wtTRAIL” value (DcR1) was “approximately 20 fold”. The “binding toward DcR2 compared to wtTRAIL” value (DcR2) was “reduced”, the “cell viability, single agent” value (Colo205 cells [3]) was “significantly less cell viability than TRAIL” and the cell viability (Human dermal fibroblasts) was “did not result in a decrease in cell viability”. For the same molecule, the “cell viability, single agent” value (LoVo cells) was “equal decrease in cell viability”, the cell viability [4] was “did not result in a decrease in cell viability” and the “effect of pre-incubation with sDcR2 on apoptosis induction” value (Colo205 cells [5]) was “only at a two fold higher concentration than for wtTRAIL”. The “effect of pre-incubation with sDcR1 on pro-apoptotic activity” value (Colo205 cells [5]; sDcR1 up to 2 μg/ml) was “failed to reduce”, the “affinity for the DR5 receptor” value (DR5) was “increased” and the “cell viability, single agent” value (Caski cells) was “comparable”. For the same molecule, the cell death induction (ML-1 cells) was “only TRAIL was able to induce cell death”.

B2: M1: rhTRAIL carrying mutations D269H, E194I and I196S (protein, UniProt P50591 1-281, looked up, variant D269H E194I I196S)
Tumor necrosis factor ligand …: MAMMEVQGGPSLGQTCVLIVIFTVLLQSLCVAVTYVYFTNELKQMQDKYSKSGIACFLKEDDSYWDPNDEESMNSPCWQVKWQLRQLVRKMILRTSEETISTVQEKQQNISPLVRERGPQRVAAHITGTRGRSNTLSSPNSKNEKALGRKINSWESSRSGHSFLSNLHLRNGELVIHEKGFYYIYSQTYFRFQIESKENTKNDKQMVQYIYKYTSYPDPILLMKSARNSCWSKDAEYGLYSIYQGGIFELKENDRIFVSVTNEHLIDMHHEASFFGAFLVG
In the case of B2, the “cell viability, single agent” value (HeLa cells) is reported as “comparable”, the “cell viability, single agent” value (SW948 cells) is reported as “decreased cell viability” and the “cell viability, single agent” value (Colo205 cells [3]) is reported as “significantly less cell viability than TRAIL”. For the same molecule, the “cell viability, single agent” value (LoVo cells) was “equal decrease in cell viability” and the “cell viability, single agent” value (Caski cells) was “comparable”.

B3: D269HT214R: TRAIL variant containing mutations D269H and T214R (protein, UniProt P50591 1-281, looked up, variant D269H T214R)
Tumor necrosis factor ligand …: B2 Tumor necrosis factor ligand … with I194E, S196I, T214R
For B3, the “cytotoxic activity compared with wild-type TRAIL” value (A2780 cells [1]) was “significantly increased”, the “increase in apoptosis / efficiency compared to wtTRAIL” value (A2780 cells [2]) was 2 fold and the “increase of apoptosis rate compared to wtTRAIL” value (Colo205 cells [6]) was 1.5 fold. For the same molecule, the cell death induction (ML-1 cells) was “only TRAIL was able to induce cell death”.
